This passage reports ratio to parent and stoichiometry N results from PMC4654587.

Assay [1] deals with His6-CsuA/B (N-terminal donor strand sequence replaced by a His6-tag). Particulars: parent: est. 1.0; read off a plot.
The target of assay [2] is His-tagged EcpB (wild type) (Escherichia coli) (UniProt P77188). As to the kind of experiment: SEC. (In general: Size exclusion chromatography separates by hydrodynamic size, large species first.)

Consider CsuC (wild type, without tag) R89A, for which the ratio to parent in assay [1] was determined as 0.15. Consider “CsuC (wild type, without tag) R89A; Y196F”, for which the ratio to parent in assay [1] came out at 0.02. As for CsuC (wild type, without tag) R174A, in assay [1], the ratio to parent worked out at 0.5. As for CsuC (wild type, without tag) Y196F, the ratio to parent in assay [1] was found to be 0.13. The term stoichiometry N denotes the number of molecules, sites or subunits per partner or assembly. On to “EcpA with a Trp11Ala mutation (from UniProt P0AAA3 23-195) (natural protein)”, for which, in assay [2], the stoichiometry N was determined as 1.
